The results in this text go back to the nanobody polyreactivity screen of Harvey et al. (2022).

The data set can be described thus: yeast display, Sf9 membrane polyspecificity reagent, FACS + sequencing; frameworks hold sequencing errors. The gist of the method:
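Sorting gates, low and high (top ~1%), were placed on anti-HA fluorescence to track expression and on streptavidin fluorescence to track reagent binding. A clone's polyreactivity label is taken from the gate it came out of. The reagent was 10% biotinylated, detergent-solubilized Sf9 membrane, applied for 1 hour at 4 °C to galactose-induced yeast display cells.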
On to “QVQLVESGGGLVQAGGSLRLSCAASGIIIDNYTMGWYRQAPGKEREFVAAINKSGGSTYADSVKGRFTISRDNAKNTVYLQMNSLKPEDTAVYYCAAEVDYSYWPEYARKYYYWGQGTQVTVSS”, for which the “polyreactivity (PSR sort gate)” value was “low polyreactivity”. Under “QVQLVESGGGLVQAGGSLRLSCAASGIIIDRYAMGWYRQAPGKERELVAAISWSGGRTYYADSVKGRFTISRDNAKNTVYLQMNSLKPEDTAVYYCAAKPSVDLDYWGQGTQVTVSS” stands “high polyreactivity”. The value for “QVQLVESGGGLVQAGGSLRLSCAASGIIIRYYGMGWYRQAPGKERELVARIRWTGGSTYYADSVKGRFTISRDNAKNTVYLQMNSLKPEDTAVYYCAAAWWSYKFNRDFDYWGQGTQVTVSS” was “low polyreactivity”; that for “QVQLVESGGGLVQAGGSLRLSCAASGIIISINAMGWYRQAPGKERELVAAISRSGGSTNYADSVKGRFTISRDNAKNTVYLQMNSLKPVDTAVDYCATVHRYSVWSHNYWGQGTQVTVSS” was “high polyreactivity”; that for “QVQLVESGGGLVQAGGSLRLSCAASGIIISYYAMGWYRQAPGTERELVAAINWNGDSTHYADSVKGRFTISRDNAKNTVYLKMNSLKPEDTAVYYCAAGYTPDTRCHYGTHDMDYWGQGTQVTVSS” was “low polyreactivity”. With “QVQLVESGGGLVQAGGSLRLSCAASGIIIYKYAMGWDRQAPGTERELVAAITSGGGRTYYADSVKGRFTISRDNAKNTVYLQMNSLKPEDTAVYYCAATRPATYAAYDYWGQGTQVTVSS”, the “polyreactivity (PSR sort gate)” value is recorded as “high polyreactivity”.

Take “QVQLVESGGGLVQAGGSLRLSCAASGIILAGYGMGWYRQAPGKERELVAAINGCGGSTYYADSVKGRFTISRDNAKNTVYLQMNSLKPEDTAVYYCATDWWSGLYYYWGQGTQVTVSS”: the “polyreactivity (PSR sort gate)” value is “high polyreactivity”.

For the sequence “QVQLVESGGGLVQAGGSLRLSCAASGIILDPNAMGWSRQAPGKERELVAGITRSGVSTYYAESVKGRFTISRDNAKNTVYLKMNSLKPEDTAVYYCAKDRISGSKGEDDDYWGKGTQVTVSS”, the “polyreactivity (PSR sort gate)” value is on record as “low polyreactivity”. Turning to “QVQLVESGGGLVQAGGSLRLSCAASGIILDRNAMGWYRQAPGKERELVAAINSIGGSTYYADSVKGRFTISRDTAKNTVYLQMNSLKPEDTAVYYCNVAQRYYGNFFSSRYEYWGQGTQVTVSS”, the “polyreactivity (PSR sort gate)” value is given as “low polyreactivity”. Under “QVQLVESGGGLVQAGGSLRLSCAASGIILGLNVMGWYRQAPGKERELVATITRRGGSTFYADSVKGRFTISRDNAKNTVYLQMNSLKPEDTAVYYCNAEQWIWHHLTVQGFDYWGQGTQVTVSS” stands “high polyreactivity”; under “QVQLVESGGGLVQAGGSLRLSCAASGIILPRYAMGWYRQAPGKERELVAAISRGGGTYYADSVKGRFTISRDNAKNTVYLQMNSLIPEDTAVYYCAAAYVFVGSSHYYWGQGTQVTVSS”, “high polyreactivity”. Turning to “QVQLVESGGGLVQAGGSLRLSCAASGIILPYYVMGLYRQAPGKERELVAAISSGGRTYYADSVKGRFTISRDNAKNTVYLQMNSLKPEDTAVYYCNAYFTGKWYDYWGQGTQVTVSS”, the “polyreactivity (PSR sort gate)” value is given as “high polyreactivity”. For “QVQLVESGGGLVQAGGSLRLSCAASGIILRYYAMGWYRQAPGKERELVAAITRGGSTNYADSVKGRFTISRDNAKNTVYLQMNSLKPEVTAVYYCAADVVFWFSNVAWRDFGYWGQGTQVTVSS”, the “polyreactivity (PSR sort gate)” value is “low polyreactivity”. Under “QVQLVESGGGLVQAGGSLRLSCAASGIILSGYAMGWYRQAPGKDRELVAAIRRGGSTYYADSVKGRFTISRDNAKNTVYLQMNSLKPEDTAVYYCNAYSSRKVKWWDDYWGQGTQVTVSS” stands “high polyreactivity”; under “QVQLVESGGGLVQAGGSLRLSCAASGIILSYYVMGGYRQAPGNATELVAAISLRGGTTYYADSVKGRFTISRDNANTTVYIQMNSLKPEDTAVYYCAAQRPGFGYEYDYWGQGTQVTVSS”, “high polyreactivity”.

In the case of “QVQLVESGGGLVQAGGSLRLSCAASGIILVRNAMGWYRQAPGKERELVAAISKSGGRTYYADSVKGRFTISRDNAKNTVYLQMNSLKPEDTAVYYCNVLTYHDFDYWGQGSQVTVSS”, the “polyreactivity (PSR sort gate)” value was “high polyreactivity”.
